Assay results reported in US20150297458A1, “RAPID RECONSTITUTION PACKAGES FOR MIXING AND DELIVERY OF DRUGS” (Massachusetts Institute of Technology, priority 2012, published 2015).

How the values were obtained:
[1] = cited from earlier work
[2] = ELISA stability characterization of tPA after storage in vial, solution or RRP; assay type: physicochemical
Method: RRPs were initially kept at 20° C., and subsequently subjected to a fixed wall temperature of 65° C. for 3 hours. Samples were kept in 6 different storage conditions for 24 hours prior to assay preparation: (1) Standard Cathflo Activase lyophilized in glass vial at 20° C.; (2) Cathflo Activase reconstituted in Millipore filtered water and kept in glass vial at 20° C.; (3) lyophilized Cathflo Activase loaded into RRPs and kept at 20° C.; (4) Cathflo Activase lyophilized in glass vial at 65° C.; (5) Cathflo Activase reconstituted in Millipore filtered water and stored in glass vial at 65° C., and (6) Cathflo Activase loaded into RRP and kept at 65° C. After 24 hours each sample in lyophilized form, including those stored in the RRP, was reconstituted in 2 mL Millipore water, and apportioned for subsequent use in ELISA, UV-Vis and HPLC assays.
Stability experiments were performed to characterize and compare the RRP with standard vials at various storage conditions. ELISA assays were used to test for stability of samples (Human tPA Platinum ELISA Kit, eBioscience, Inc.) that underwent two temperature conditions, T=20, 65° C. HPLC assays were not sufficient in assaying stability for tPA as the low pH buffer required denatured tPA regardless of conformation or partial denaturation already induced by the storage condition.
The samples to be tested were injected into each ELISA well and left to incubate. After a wash step, a second antibody, horseradish peroxidase (HRP)-conjugated anti-tPA, was injected into each sample well. The HRP-conjugated anti-tPA bound onto the opposing side of the tPA molecule already bound onto the plate-fixed antibody. After a second wash step, a color inducing substrate (TMB substrate) was then injected into the wells, which bound onto the HRP to induce a measureable gradient representing the amount of tPA bound. In order to prevent oversaturation of the antibodies, the samples were diluted to 10 ng/mL to fall within the assay sensitivity range of 2 pg/mL-10 ng/mL. Optical signal intensity from assay plates were measured with spectrophotometer at wavelength 450 nm (PowerWave HT Microplate Spectrophotomer, BioTek Instruments, Inc.). Each sample was normalized against a calibration curve derived from a 5-parameter logistic fit of tPA standards ran concurrently with the samples.

Substance: Tissue Plasminogen Activator [tPA]
- stability time in solution (liquid form) [1]: up to 8 hours
- stability by ELISA ([2]; all samples (solid, liquid, and RRP) at 20° C., over 24 hours): stability preservation
- average activity retained (ELISA) ([2]; lyophilized in standard glass vial at 65° C., 24 hours): 81.6%
- total initial drug stability retained, average (ELISA) ([2]; lyophilized, loaded into RRP, kept at 65° C., 24 hours): 86.3%
- activity expressed, in average of the standard activity average (ELISA) ([2]; stored in reconstituted form within glass vials at 65° C., 24 hours): 39.3%
